Test results from publication PMC3485628, “Perlecan domain 1 recombinant proteoglycan augments BMP-2 activity and osteogenesis” (BMC Biotechnology, 2012).

Molecular target: T1, recombinant human perlecan domain 1 proteoglycan rhPln.247 (human, UniProt P98160 22-247, heparan sulfate and chondroitin sulfate glycosaminoglycan chains (CS:HS ratio of approximately 2:1); attachment residues not given)
T1 construct: signal peptide in the construct; The secreted product has probably lost the signal peptide; also called rhPln.D1; rPlnD1; source: HEK 293 cells, adenoviral expression system, purified
Experiment: ELISA; rhPln.247 coated directly on polystyrene microtiter wells overnight at 4°C in PBS/N3 at about 1-2 ug/ml; rhBMP-2 or rhBMP-7 serially diluted; retained BMP detected with biotinylated anti-BMP antibodies; background without rhPln.247 subtracted; apparent Kd
Conditions: both partners purified

T1 sequence (P98160 22-247): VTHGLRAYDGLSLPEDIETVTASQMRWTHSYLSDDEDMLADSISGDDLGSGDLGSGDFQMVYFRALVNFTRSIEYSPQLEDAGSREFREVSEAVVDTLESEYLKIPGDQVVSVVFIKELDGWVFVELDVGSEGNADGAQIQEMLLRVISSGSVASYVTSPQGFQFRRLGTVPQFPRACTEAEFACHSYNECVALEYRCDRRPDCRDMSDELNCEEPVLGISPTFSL

B1: recombinant human bone morphogenetic protein-7 (ligand)
chain: STGSKQRSQNRSKTPKNQEALRMANVAENSSSDQRQACKKHELYVSFRDLGWQDWIIAPEGYAAYYCEGECAFPLNSYMNATNHAIVQTLVHFINPETVPKPCCAPTQLNAISVLYFDDSSNVILKKYRNMVVRACGCH
notes: bone morphogenetic protein 7, human, recombinant; also called rhBMP-7; rBMP-7; source: bought: R&D Systems
fold by which rhBMP-2 binds more tightly than rhBMP-7: ~10 fold
